The record followed here is PMC4705532, ““Click on the bidirectional switch”: the aptasensor for simultaneous detection of lysozyme and ATP with high sensitivity and high selectivity”.

For data set [1], the target named is T1, lysozyme (UniProt P00698 19-147). As to the kind of experiment: resonance light scattering; 10 mM Tris pH 7.4, 2.0 uM methyl violet (duplex sensor), target binding 20 min at 37 °C; salt not stated. Conditions: protein: commercial.
Data set [2] deals with T2, papain (UniProt P00784 134-345).
T2 sequence: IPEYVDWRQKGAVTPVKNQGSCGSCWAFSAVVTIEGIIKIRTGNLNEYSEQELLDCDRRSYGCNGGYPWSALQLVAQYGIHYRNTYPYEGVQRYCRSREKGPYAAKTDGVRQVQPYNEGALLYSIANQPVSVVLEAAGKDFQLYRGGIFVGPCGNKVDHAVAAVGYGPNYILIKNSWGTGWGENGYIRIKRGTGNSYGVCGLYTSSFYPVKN
As to the kind of experiment: resonance light scattering; 2.0 uM methyl violet; 100-fold excess; 10 mM Tris pH 7.4, 2.0 uM methyl violet (duplex sensor), target binding 20 min at 37 °C; salt not stated. Conditions: protein: commercial; blunt.

Data set [3] deals with ovalbumin (UniProt P01012 2-386). Described as above. Conditions: protein: commercial; blunt.
Sequence of ovalbumin (P01012 2-386): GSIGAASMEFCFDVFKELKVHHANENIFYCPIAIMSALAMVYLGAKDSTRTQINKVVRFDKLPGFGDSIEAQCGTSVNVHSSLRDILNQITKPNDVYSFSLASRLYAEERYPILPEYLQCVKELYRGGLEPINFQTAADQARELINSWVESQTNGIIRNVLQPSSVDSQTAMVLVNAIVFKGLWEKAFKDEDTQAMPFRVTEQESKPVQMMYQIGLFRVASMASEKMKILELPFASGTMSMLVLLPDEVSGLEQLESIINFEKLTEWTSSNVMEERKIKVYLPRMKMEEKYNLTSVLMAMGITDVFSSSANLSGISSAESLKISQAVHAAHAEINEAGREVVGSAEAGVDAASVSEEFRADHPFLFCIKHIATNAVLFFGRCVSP
Data set [4] has as its target thrombin (UniProt P00734;P00734 328-363;364-622). The description is as above.
Data set [5] has as its target T1, lysozyme. Briefly: resonance light scattering; 2.0 uM methyl violet; lysozyme said to open the duplex and bind Lapt; 10 mM Tris pH 7.4, 2.0 uM methyl violet (duplex sensor), target binding 20 min at 37 °C; salt not stated. The following applies: protein: commercial; blunt.

T1 sequence (P00698 19-147): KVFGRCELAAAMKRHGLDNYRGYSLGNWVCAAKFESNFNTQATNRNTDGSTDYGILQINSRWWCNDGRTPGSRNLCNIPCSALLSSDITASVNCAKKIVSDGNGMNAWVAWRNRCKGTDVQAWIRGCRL

B1: Lapt (lysozyme aptamer) (ssDNA)
DNA: ATCTACGAATTCATCAGGGCTAAAGAGTGCAGAGTTACTTAGACCTTCCTCCGCAATACTCCCCCAGGTT
For the molecule B1, the binding result in data set [1] is listed as “binds”.

B2: Lapt≈Aapt duplex (with methyl violet) (dsDNA)
DNA 1: ATCTACGAATTCATCAGGGCTAAAGAGTGCAGAGTTACTTAGACCTTCCTCCGCAATACTCCCCCAGGTT
DNA 2: AACCTGGGGGAGTATTGCGGAGGAAGGTCTAAGTAACTCTGCACTCTTTAGCCCTGATGAATTCGTAGAT
Consider B2, for which the binding result in data set [2] is listed as “no binding”; in data set [3] it was “no binding”; in data set [4], “no binding”; in data set [5], “binds”.
